Reference: PMC9145999

Target: main protease from canine coronavirus (CCoV M^pro) (canine coronavirus)
Assay: crystal structure; CCoV M^pro incubated with two-fold molar excess of GC376 at 4 °C for 1 h; crystals from 0.2 M sodium citrate, 0.1 M Bis Tris propane 7.0, 25% w/v PEG 3350 at 20 °C; 2.75 Å, space group C2, eight protomers in the asymmetric unit

“main protease from canine coronavirus (CCoV M^pro) (enzyme)” was tested, and the stoichiometry N was 2.
